Measured values published in patent publication US20220236279A1 (LUXEMBOURG INSTITUTE OF HEALTH LIH, published 2022).
No end group written: not given here.

B4: delta-type opioid receptor (DOR) (receptor, UniProt P41143 1-372, looked up)
chain: MEPAPSAGAELQPPLFANASDAYPSACPSAGANASGPPGARSASSLALAIAITALYSAVCAVGLLGNVLVMFGIVRYTKMKTATNIYIFNLALADALATSTLPFQSAKYLMETWPFGELLCKAVLSIDYYNMFTSIFTLTMMSVDRYIAVCHPVKALDFRTPAKAKLINICIWVLASGVGVPIMVMAVTRPRDGAVVCMLQFPSPSWYWDTVTKICVFLFAFVVPILIITVCYGLMLLRLRSVRLLSGSKEKDRSLRRITRMVLVVVGAFVVCWAPIHIFVIVWTLVDIDRRDPLVVAALHLCIALGYANSSLNPVLYAFLDENFKRCFRQLCRKPCGRPDPSSFSRAREATARERVTACTPSDGPGGGAAA
notes: whole, on cells; C-terminally SmBiT-tagged in the NanoBiT assays; also called OPRD; DOP

What was measured:
[1] = molecular target: mu-type opioid receptor (MOR) (UniProt P35372 1-400); experiment: cell-based or functional assay
mu-type opioid receptor (MOR), sequence (P35372 whole entry): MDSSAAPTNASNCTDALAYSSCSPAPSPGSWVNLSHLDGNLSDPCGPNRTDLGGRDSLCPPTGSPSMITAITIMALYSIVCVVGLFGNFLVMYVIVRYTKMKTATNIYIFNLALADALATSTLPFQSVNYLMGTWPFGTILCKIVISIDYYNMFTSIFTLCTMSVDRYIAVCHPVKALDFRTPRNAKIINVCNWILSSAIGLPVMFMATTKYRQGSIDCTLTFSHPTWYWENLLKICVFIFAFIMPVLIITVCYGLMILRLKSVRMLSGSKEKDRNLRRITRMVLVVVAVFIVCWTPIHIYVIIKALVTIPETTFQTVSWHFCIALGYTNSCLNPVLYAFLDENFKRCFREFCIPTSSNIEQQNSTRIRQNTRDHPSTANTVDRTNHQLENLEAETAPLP

[2] = molecular target: B4; experiment: cell-based or functional assay
[3] = molecular target: kappa-type opioid receptor (KOR) (UniProt P41145 1-380); experiment: cell-based or functional assay
kappa-type opioid receptor (KOR), sequence (P41145 whole entry): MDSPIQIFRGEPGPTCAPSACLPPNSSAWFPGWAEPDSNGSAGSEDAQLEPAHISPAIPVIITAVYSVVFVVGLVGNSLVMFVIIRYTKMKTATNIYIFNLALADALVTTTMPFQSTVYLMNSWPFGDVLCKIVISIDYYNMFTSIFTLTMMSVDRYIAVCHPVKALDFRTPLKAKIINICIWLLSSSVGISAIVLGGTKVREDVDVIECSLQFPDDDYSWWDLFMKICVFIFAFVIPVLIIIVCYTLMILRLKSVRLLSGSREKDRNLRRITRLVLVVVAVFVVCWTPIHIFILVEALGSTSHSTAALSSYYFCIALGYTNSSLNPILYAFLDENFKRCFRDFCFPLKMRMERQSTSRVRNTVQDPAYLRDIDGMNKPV

[4] = molecular target: T1, human atypical chemokine receptor 3 (ACKR3) (human, UniProt P25106 1-362); experiment: cell-based or functional assay
T1 sequence (P25106 whole entry): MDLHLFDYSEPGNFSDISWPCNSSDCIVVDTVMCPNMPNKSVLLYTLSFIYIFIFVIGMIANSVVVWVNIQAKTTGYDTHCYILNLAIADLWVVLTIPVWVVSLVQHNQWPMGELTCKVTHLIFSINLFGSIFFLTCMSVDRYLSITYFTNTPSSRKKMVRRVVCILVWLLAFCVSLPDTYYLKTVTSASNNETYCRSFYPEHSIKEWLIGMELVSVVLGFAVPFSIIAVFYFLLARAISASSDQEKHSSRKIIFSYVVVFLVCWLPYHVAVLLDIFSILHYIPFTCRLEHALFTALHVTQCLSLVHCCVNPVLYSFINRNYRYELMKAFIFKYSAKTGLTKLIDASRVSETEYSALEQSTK

[5] = molecular target: T2, C-X-C motif chemokine receptor 4 (CXCR4) (UniProt P61073 1-352); experiment: flow cytometry, labelled peptide on U87-CXCR4 cells
T2 construct: whole, on cells; Stably expressed in U87 cells (U87-CXCR4); C-terminally SmBiT-tagged in the NanoBiT assays
T2 sequence (P61073 whole entry): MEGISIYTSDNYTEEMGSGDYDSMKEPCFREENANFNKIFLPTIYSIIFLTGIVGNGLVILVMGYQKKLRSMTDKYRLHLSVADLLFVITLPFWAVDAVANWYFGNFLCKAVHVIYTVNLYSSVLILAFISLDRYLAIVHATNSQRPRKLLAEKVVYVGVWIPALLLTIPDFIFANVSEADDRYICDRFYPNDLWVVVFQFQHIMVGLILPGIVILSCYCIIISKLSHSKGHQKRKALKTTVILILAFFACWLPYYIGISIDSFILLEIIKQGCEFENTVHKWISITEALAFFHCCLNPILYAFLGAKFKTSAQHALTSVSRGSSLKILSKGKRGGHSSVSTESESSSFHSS

[6] = molecular target: T3, human β-arrestin-1 N-terminally fused to LgBiT (human, UniProt P49407 1-418); experiment: NanoBiT complementation in U87 cells (receptor-SmBiT, LgBiT-β-arrestin-1), induced by adrenorphin
T3 construct: Co-expressed in U87 cells with SmBiT-tagged receptors; also called LgBiT-beta-arrestin-1; not shown: LgBiT (NanoBiT, Promega)
T3 sequence (P49407 whole entry, the tested form may be a part): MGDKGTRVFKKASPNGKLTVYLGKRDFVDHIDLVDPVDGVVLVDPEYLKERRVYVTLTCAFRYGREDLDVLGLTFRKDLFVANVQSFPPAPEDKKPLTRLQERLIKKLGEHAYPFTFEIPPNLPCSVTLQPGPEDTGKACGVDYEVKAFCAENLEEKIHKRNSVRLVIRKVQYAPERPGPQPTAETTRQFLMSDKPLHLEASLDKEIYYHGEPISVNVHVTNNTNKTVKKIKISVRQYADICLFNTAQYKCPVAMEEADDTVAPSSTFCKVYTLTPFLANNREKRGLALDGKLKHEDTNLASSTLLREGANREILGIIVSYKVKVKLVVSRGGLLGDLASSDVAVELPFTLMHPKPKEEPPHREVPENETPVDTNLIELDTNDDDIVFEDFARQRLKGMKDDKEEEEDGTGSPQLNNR
Procedure: 48 hours post-transfection cells were harvested, incubated 25 minutes at 37° C. with Nano-Glo Live Cell substrate diluted 200-fold and distributed into white 96-well plates (5×10⁴ cells per well). Ligand-induced, β-arrestin and mG recruitment to GPCRs was evaluated with a Mithras LB940 luminometer (Berthold Technologies) for 20 minutes. For concentration-response curves, the signal recorded with a saturating concentration of full agonist for each receptor was set as 100%.

[7] = molecular target: T1, human atypical chemokine receptor 3 …; experiment: flow cytometry competition with 5 nM CXCL12-AF647 on U87-ACKR3 cells
Excerpt: Dead cells were excluded using Zombie Green viability dye (BioLegend). […] Ligand binding was quantified by mean fluorescence intensity on a BD FACS Fortessa cytometer (BD Biosciences).

B1: adrenorphin Y1F variant (SEQ ID NO: 35; NH2-substituted at C-terminus) (peptide)
peptide: FGGFMRRV-NH2
For B1, the “fold reduction of potency against WT adrenorphin, β-arrestin-1 recruitment” value (shortened to “fold reduction of potency”) [1] was > 100 fold, the “fold reduction of potency” value [2] was > 100 fold and the “fold reduction of potency” value [3] was > 100 fold. For the same binder, the “fold change of potency against WT adrenorphin, β-arrestin-1 recruitment” value [4] was 10 fold.

B2: LIH383, octapeptide FGGFMRRK (SEQ ID NO: 3; NH2-substituted at C-terminus) (peptide)
peptide: H-FGGFMRRK-NH2
With B2 the “EC50, β-arrestin recruitment (NanoBiT)” value [4] was 0.61 nM.

B3: Cy-5-labelled LIH383 (peptide)
peptide: FGGFMRRK
modifications: also: Cy5 label, site not given here
notes: also called LIH383-Cy5; fluorescently labelled LIH383
B3: no binding [5].

B4: binds [6].

B5: dynorphin 2-13 (SEQ ID NO: 20; NH2-substituted at C-terminus) (peptide)
peptide: GGFLRRIRPKLK-NH2
B5: binds [7].

B6: dynorphin 2-17 (SEQ ID NO: 19) (peptide)
peptide: GGFLRRIRPKLKWDNQ
B6: binds [7].
